In the supplement of paper PMC10567573:

B1: TNNI2 (parent)
chain: DWRKNIEEKSGMEGRKKMFESES

Variants of: B1
Assay: protein stability index of a GFP-peptide fusion (GPS, HEK-293T) (PSI 1-6); higher = more stable
Settings: c terminus: native
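Note: lentivirally expressed fusions sorted by FACS into six bins by GFP to DsRed ratio, PSI derived from sequencing read proportions per bin multiplied by bin number.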

| Variant | protein stability index |
| --- | --- |
| DWRKQIEEKSGMEGRKKMFESES | 2.72 |
| DWRKDIEEKSGMEGRKKMFESES | 1.94 |
| DWRKGIEEKSGMEGRKKMFESES | 2.5 |
| DWRKEIEEKSGMEGRKKMFESES | 2.28 |
| DWRKSIEEKSGMEGRKKMFESES | 2.31 |
| DWRKCIEEKSGMEGRKKMFESES | 2.7 |
| DWRKLIEEKSGMEGRKKMFESES | 2.57 |
| DWRKAIEEKSGMEGRKKMFESES | 3.79 |
| DWRKIIEEKSGMEGRKKMFESES | 2.32 |
| DWRKYIEEKSGMEGRKKMFESES | 1.62 |
| DWRKVIEEKSGMEGRKKMFESES | 2.04 |
| DWRKPIEEKSGMEGRKKMFESES | 3.97 |
| DWRKTIEEKSGMEGRKKMFESES | 3.41 |
| DWRKRIEEKSGMEGRKKMFESES | 2.95 |
| DWRKFIEEKSGMEGRKKMFESES | 2.43 |
| DWRKWIEEKSGMEGRKKMFESES | 1.64 |
| DWRKMIEEKSGMEGRKKMFESES | 2.37 |
| DWRKHIEEKSGMEGRKKMFESES | 2.07 |
| DWRKNGEEKSGMEGRKKMFESES | 2.41 |
| DWRKNPEEKSGMEGRKKMFESES | 3.72 |
| DWRKNKEEKSGMEGRKKMFESES | 2.23 |
| DWRKNAEEKSGMEGRKKMFESES | 2.59 |
| DWRKNMEEKSGMEGRKKMFESES | 2.52 |
| DWRKNNEEKSGMEGRKKMFESES | 2.54 |
| DWRKNHEEKSGMEGRKKMFESES | 2.12 |

| Variant | protein stability index |
| --- | --- |
| DWRKNQEEKSGMEGRKKMFESES | 3.26 |
| DWRKNCEEKSGMEGRKKMFESES | 2.54 |
| PWRKNIEEKSGMEGRKKMFESES | 2.57 |
| CWRKNIEEKSGMEGRKKMFESES | 1.75 |
| QWRKNIEEKSGMEGRKKMFESES | 2.65 |
| NWRKNIEEKSGMEGRKKMFESES | 2.79 |
| LWRKNIEEKSGMEGRKKMFESES | 1.9 |
| VWRKNIEEKSGMEGRKKMFESES | 2.37 |
| YWRKNIEEKSGMEGRKKMFESES | 2.24 |
| IWRKNIEEKSGMEGRKKMFESES | 2.63 |
| KWRKNIEEKSGMEGRKKMFESES | 2.01 |
| HWRKNIEEKSGMEGRKKMFESES | 2.27 |
| AWRKNIEEKSGMEGRKKMFESES | 2.91 |
| TWRKNIEEKSGMEGRKKMFESES | 2.37 |
| RWRKNIEEKSGMEGRKKMFESES | 2.79 |
| FWRKNIEEKSGMEGRKKMFESES | 1.9 |
| SWRKNIEEKSGMEGRKKMFESES | 1.79 |
| MWRKNIEEKSGMEGRKKMFESES | 1.57 |
| WWRKNIEEKSGMEGRKKMFESES | 3.07 |
| GWRKNIEEKSGMEGRKKMFESES | 2.28 |
| DIRKNIEEKSGMEGRKKMFESES | 2.53 |
| DLRKNIEEKSGMEGRKKMFESES | 2.85 |
| DGRKNIEEKSGMEGRKKMFESES | 2.51 |
| DNRKNIEEKSGMEGRKKMFESES | 2.25 |
| DSRKNIEEKSGMEGRKKMFESES | 2.69 |

| Variant | protein stability index |
| --- | --- |
| DCRKNIEEKSGMEGRKKMFESES | 2.88 |
| DPRKNIEEKSGMEGRKKMFESES | 3.59 |
| DFRKNIEEKSGMEGRKKMFESES | 2.55 |
| DTRKNIEEKSGMEGRKKMFESES | 2.32 |
| DQRKNIEEKSGMEGRKKMFESES | 3.67 |
| DERKNIEEKSGMEGRKKMFESES | 3.25 |
| DDRKNIEEKSGMEGRKKMFESES | 3.12 |
| DHRKNIEEKSGMEGRKKMFESES | 2.95 |
| DKRKNIEEKSGMEGRKKMFESES | 1.95 |
| DMRKNIEEKSGMEGRKKMFESES | 3.08 |
| DVRKNIEEKSGMEGRKKMFESES | 2.96 |
| DYRKNIEEKSGMEGRKKMFESES | 2.93 |
| DWRANIEEKSGMEGRKKMFESES | 3.61 |
| DWRLNIEEKSGMEGRKKMFESES | 2.82 |
| DWRINIEEKSGMEGRKKMFESES | 2.13 |
| DWRFNIEEKSGMEGRKKMFESES | 2.37 |
| DWRMNIEEKSGMEGRKKMFESES | 3.39 |
| DWRWNIEEKSGMEGRKKMFESES | 2.13 |
| DWRVNIEEKSGMEGRKKMFESES | 3.15 |
| DWRCNIEEKSGMEGRKKMFESES | 2.32 |
| DWRQNIEEKSGMEGRKKMFESES | 3.21 |
| DWRDNIEEKSGMEGRKKMFESES | 3.23 |
| DWRTNIEEKSGMEGRKKMFESES | 2.98 |
| DWRHNIEEKSGMEGRKKMFESES | 2.62 |
| DWRGNIEEKSGMEGRKKMFESES | 3.03 |

| Variant | protein stability index |
| --- | --- |
| DWRENIEEKSGMEGRKKMFESES | 2.59 |
| DWRPNIEEKSGMEGRKKMFESES | 2.61 |
| DWRSNIEEKSGMEGRKKMFESES | 3.03 |
| DWRNNIEEKSGMEGRKKMFESES | 3.23 |
| DWRYNIEEKSGMEGRKKMFESES | 2.56 |
| DWKKNIEEKSGMEGRKKMFESES | 2.34 |
| DWDKNIEEKSGMEGRKKMFESES | 2.63 |
| DWTKNIEEKSGMEGRKKMFESES | 2.48 |
| DWFKNIEEKSGMEGRKKMFESES | 2.06 |
| DWMKNIEEKSGMEGRKKMFESES | 3.28 |
| DWGKNIEEKSGMEGRKKMFESES | 1.61 |
| DWEKNIEEKSGMEGRKKMFESES | 2.48 |
| DWLKNIEEKSGMEGRKKMFESES | 1.74 |
| DWPKNIEEKSGMEGRKKMFESES | 1.84 |
| DWSKNIEEKSGMEGRKKMFESES | 2.04 |
| DWVKNIEEKSGMEGRKKMFESES | 2.08 |
| DWIKNIEEKSGMEGRKKMFESES | 2.19 |
| DWNKNIEEKSGMEGRKKMFESES | 2.48 |
| DWAKNIEEKSGMEGRKKMFESES | 2.09 |
| DWQKNIEEKSGMEGRKKMFESES | 2.84 |
| DWYKNIEEKSGMEGRKKMFESES | 1.64 |
| DWHKNIEEKSGMEGRKKMFESES | 2.88 |
